From patent publication US20240277865A1 (ACADEMIA SINICA, published 2024)

Key:
mesothelin (MSLN) [1] = biological target: T1, mesothelin (MSLN) (UniProt Q13421 296-580); assay: ELISA, MSLN coated on plate, IgG1 detected with anti-human IgG HRP
T1 construct: also called immobilized MSLN

[2] = biological target: MSLN expressed on the cell surface of human cancer cell lines N87 and H226 (human, UniProt Q13421 37-598); assay: cell-based or functional assay
mesothelin (MSLN) [3] = biological target: T1, mesothelin (MSLN); assay: ELISA, MSLN coated on plate, IgG1-vcMMAE detected with anti-human IgG HRP

T1 sequence (Q13421 other isoform, or with tags, fused parts or gaps limits assumed): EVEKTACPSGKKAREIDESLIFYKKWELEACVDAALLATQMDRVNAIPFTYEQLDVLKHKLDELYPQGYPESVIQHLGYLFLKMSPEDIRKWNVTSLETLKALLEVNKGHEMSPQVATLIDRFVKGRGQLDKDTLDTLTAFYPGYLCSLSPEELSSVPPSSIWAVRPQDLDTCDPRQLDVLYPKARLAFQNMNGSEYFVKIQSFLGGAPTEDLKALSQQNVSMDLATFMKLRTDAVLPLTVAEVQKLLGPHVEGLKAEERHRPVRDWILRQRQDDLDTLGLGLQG

| Binder | EC50 (mesothelin (MSLN) [1]) [ng/mL] | IgG1-AL1-PE38KDEL IC50 (nM), cell viability of N87 cells [2] [nM] | IgG1-vcMMAE IC50 (nM), cell viability of N87 cells [2] [nM] | EC50 (mesothelin (MSLN) [3]) [ng/mL] |
| --- | --- | --- | --- | --- |
| CHS5 IgG (antibody, V domains shown, also called IgG1-CHS5) VH: EVQLVESGGGLVQPGGSLRLSCAASGFTITDRTIHWVRQAPGKGLEWVASIFPTKGVTTYADSVKGRFTISADTSKNTAYLQMNSLRAEDTAVYYCARGRYWMDYWGQGTLVTVSS VL: DIQMTQSPSSLSASVGDRVTITCRASQDVKEGVAWYQQKPGKAPKLLIDQSHRLYSGVPSRFSGSGSGTDFTLTISSLQPEDFATYYCQQYYAWPSTFGQGTKVEIKR | 4.67 | 0.06 |  |  |
| ALA12 IgG (antibody, V domains shown) VH: EVQLVESGGGLVQPGGSLRLSCAASGFTIGNWTIHWVRQAPGKGLEWVALIWPESGATLYADSVKGRFTISADTSKNTAYLQMNSLRAEDTAVYYCARGRYWMDYWGQGTLVTVSS VL: DIQMTQSPSSLSASVGDRVTITCRASQDVRDGVAWYQQKPGKAPKLLIDQMVRLYSGVPSRFSGSGSGTDFTLTISSLQPEDFATYYCQQYFNWPVTFGQGTKVEIKR | 8.37 | 0.1 |  |  |
| CHS8-vcMMAE (antibody, V domains shown, also called CHS8 IgG1-vcMMAE) VH: EVQLVESGGGLVQPGGSLRLSCAASGFTISKASIHWVRQAPGKGLEWVASIWPTKGFTTYADSVKGRFTISADTSKNTAYLQMNSLRAEDTAVYYCARGRYWLDYWGQGTLVTVSS VL: DIQMTQSPSSLSASVGDRVTITCRASQDVKEGVAWYQQKPGKAPKLLIDERERLYSGVPSRFSGSGSGTDFTLTISSLQPEDFATYYCQQYNTWPATFGQGTKVEIKR |  |  | 24.6 | 9.26 |
| ALA12-vcMMAE (antibody, V domains shown, also called ALA12 IgG1-vcMMAE) VH: EVQLVESGGGLVQPGGSLRLSCAASGFTIGNWTIHWVRQAPGKGLEWVALIWPESGATLYADSVKGRFTISADTSKNTAYLQMNSLRAEDTAVYYCARGRYWMDYWGQGTLVTVSS VL: DIQMTQSPSSLSASVGDRVTITCRASQDVRDGVAWYQQKPGKAPKLLIDQMVRLYSGVPSRFSGSGSGTDFTLTISSLQPEDFATYYCQQYFNWPVTFGQGTKVEIKR |  |  | 39.9 | 10.5 |
| CHS7-vcMMAE (antibody, V domains shown, also called CHS7 IgG1-vcMMAE) VH: EVQLVESGGGLVQPGGSLRLSCAASGFTIDKEAIHWVRQAPGKGLEWVASIYPHSGFTLYADSVKGRFTISADTSKNTAYLQMNSLRAEDTAVYYCARGRYWMDYWGQGTLVTVSS VL: DIQMTQSPSSLSASVGDRVTITCRASQDVEDGVAWYQQKPGKAPKLLIGIKDLLYSGVPSRFSGSGSGTDFTLTISSLQPEDFATYYCQQYYRWPSTFGQGTKVEIKR |  |  | 25.9 | 16.3 |
| CHS5-vcMMAE (antibody, V domains shown, also called CHS5 IgG1-vcMMAE) VH: EVQLVESGGGLVQPGGSLRLSCAASGFTITDRTIHWVRQAPGKGLEWVASIFPTKGVTTYADSVKGRFTISADTSKNTAYLQMNSLRAEDTAVYYCARGRYWMDYWGQGTLVTVSS VL: DIQMTQSPSSLSASVGDRVTITCRASQDVKEGVAWYQQKPGKAPKLLIDQSHRLYSGVPSRFSGSGSGTDFTLTISSLQPEDFATYYCQQYYAWPSTFGQGTKVEIKR |  |  | 15 | 9.56 |
| CHS7 IgG (antibody, V domains shown) VH: EVQLVESGGGLVQPGGSLRLSCAASGFTIDKEAIHWVRQAPGKGLEWVASIYPHSGFTLYADSVKGRFTISADTSKNTAYLQMNSLRAEDTAVYYCARGRYWMDYWGQGTLVTVSS VL: DIQMTQSPSSLSASVGDRVTITCRASQDVEDGVAWYQQKPGKAPKLLIGIKDLLYSGVPSRFSGSGSGTDFTLTISSLQPEDFATYYCQQYYRWPSTFGQGTKVEIKR | 10.3 | 0.06 |  |  |
| CHS8 IgG (antibody, V domains shown) VH: EVQLVESGGGLVQPGGSLRLSCAASGFTISKASIHWVRQAPGKGLEWVASIWPTKGFTTYADSVKGRFTISADTSKNTAYLQMNSLRAEDTAVYYCARGRYWLDYWGQGTLVTVSS VL: DIQMTQSPSSLSASVGDRVTITCRASQDVKEGVAWYQQKPGKAPKLLIDERERLYSGVPSRFSGSGSGTDFTLTISSLQPEDFATYYCQQYNTWPATFGQGTKVEIKR | 5.05 | 0.01 |  |  |
